{
  "source": "patent US11819556B2",
  "about": "“Stabilized compositions of radionuclides and uses thereof” (RayzeBio, Inc., priority 2021, dated 2023)",
  "test": "DTPA concentration optimization: radio-TLC purity",
  "format": "physicochemical",
  "conditions": "20 μCi/ml, 100 mM sodium ascorbate pH 5.80, 25° C.",
  "method": "The mixture was kept at room temperature (25° C.). At different time points, radioactive components of the formulated dose were measured by radio-TLC as described in the table below: […]",
  "data": [
    {"substance": "(2,2′,2″-(10-(2-4(R)-1-(((4R,7S,10S,13R,16S,19R)-13-((1H-indol-3-yl)methyl)-10-(4-aminobutyl)-4-(((1S,2R)-1-carboxy-2-hydroxypropyl)carbamoyl)-16-(4-hydroxybenzyl)-7-((R)-1-hydroxyethyl)-6,9,12,15,18-pentaoxo-1,2-dithia-5,8,11,14,17-pentaazacycloicosan-19-yl)amino)-1-oxo-3-phenylpropan-2-yl)amino)-2-oxoethyl)-1,4,7,10-tetraazacyclododecane-1,4,7-triyl)triacetate; actinium-225(3+)) [[^225Ac]Ac-DOTA-TATE]", "values": [
      {"measurement": "Percentage of ^225Ac present in [^225Ac]Ac-DOTA-TATE", "setting": "DTPA 0.05 mg/ml, 0 hour", "result": 98.74, "unit": "%"},
      {"measurement": "Percentage of ^225Ac present in [^225Ac]Ac-DOTA-TATE", "setting": "DTPA 0.05 mg/ml, 24 hours", "result": 97.67, "unit": "%"},
      {"measurement": "Percentage of ^225Ac present in [^225Ac]Ac-DOTA-TATE", "setting": "DTPA 0.05 mg/ml, 48 hours", "result": 95.34, "unit": "%"},
      {"measurement": "Percentage of ^225Ac present in [^225Ac]Ac-DOTA-TATE", "setting": "DTPA 0.05 mg/ml, 72 hours", "result": 94.62, "unit": "%"},
      {"measurement": "Percentage of ^225Ac present in [^225Ac]Ac-DOTA-TATE", "setting": "DTPA 0.1 mg/ml, 0 hour", "result": 97.52, "unit": "%"},
      {"measurement": "Percentage of ^225Ac present in [^225Ac]Ac-DOTA-TATE", "setting": "DTPA 0.1 mg/ml, 24 hours", "result": 98.30, "unit": "%"},
      {"measurement": "Percentage of ^225Ac present in [^225Ac]Ac-DOTA-TATE", "setting": "DTPA 0.1 mg/ml, 48 hours", "result": 96.74, "unit": "%"},
      {"measurement": "Percentage of ^225Ac present in [^225Ac]Ac-DOTA-TATE", "setting": "DTPA 0.1 mg/ml, 72 hours", "result": 94.36, "unit": "%"},
      {"measurement": "Percentage of ^225Ac present in [^225Ac]Ac-DOTA-TATE", "setting": "DTPA 0.3 mg/ml, 0 hour", "result": 98.06, "unit": "%"},
      {"measurement": "Percentage of ^225Ac present in [^225Ac]Ac-DOTA-TATE", "setting": "DTPA 0.3 mg/ml, 24 hours", "result": 97.19, "unit": "%"},
      {"measurement": "Percentage of ^225Ac present in [^225Ac]Ac-DOTA-TATE", "setting": "DTPA 0.3 mg/ml, 48 hours", "result": 96.11, "unit": "%"},
      {"measurement": "Percentage of ^225Ac present in [^225Ac]Ac-DOTA-TATE", "setting": "DTPA 0.3 mg/ml, 72 hours", "result": 93.60, "unit": "%"},
      {"measurement": "Percentage of ^225Ac present in [^225Ac]Ac-DOTA-TATE", "setting": "DTPA 0.5 mg/ml, 0 hour", "result": 98.40, "unit": "%"},
      {"measurement": "Percentage of ^225Ac present in [^225Ac]Ac-DOTA-TATE", "setting": "DTPA 0.5 mg/ml, 24 hours", "result": 97.28, "unit": "%"},
      {"measurement": "Percentage of ^225Ac present in [^225Ac]Ac-DOTA-TATE", "setting": "DTPA 0.5 mg/ml, 48 hours", "result": 95.07, "unit": "%"},
      {"measurement": "Percentage of ^225Ac present in [^225Ac]Ac-DOTA-TATE", "setting": "DTPA 0.5 mg/ml, 72 hours", "result": 92.73, "unit": "%"},
      {"measurement": "Percentage of ^225Ac present in [^225Ac]Ac-DOTA-TATE", "setting": "DTPA 0.8 mg/ml, 0 hour", "result": 98.02, "unit": "%"},
      {"measurement": "Percentage of ^225Ac present in [^225Ac]Ac-DOTA-TATE", "setting": "DTPA 0.8 mg/ml, 24 hours", "result": 97.60, "unit": "%"},
      {"measurement": "Percentage of ^225Ac present in [^225Ac]Ac-DOTA-TATE", "setting": "DTPA 0.8 mg/ml, 48 hours", "result": 96.57, "unit": "%"},
      {"measurement": "Percentage of ^225Ac present in [^225Ac]Ac-DOTA-TATE", "setting": "DTPA 0.8 mg/ml, 72 hours", "result": 93.11, "unit": "%"},
      {"measurement": "Percentage of ^225Ac present in [^225Ac]Ac-DOTA-TATE", "setting": "DTPA 1.0 mg/ml, 0 hour", "result": 98.25, "unit": "%"},
      {"measurement": "Percentage of ^225Ac present in [^225Ac]Ac-DOTA-TATE", "setting": "DTPA 1.0 mg/ml, 24 hours", "result": 97.37, "unit": "%"},
      {"measurement": "Percentage of ^225Ac present in [^225Ac]Ac-DOTA-TATE", "setting": "DTPA 1.0 mg/ml, 48 hours", "result": 96.14, "unit": "%"},
      {"measurement": "Percentage of ^225Ac present in [^225Ac]Ac-DOTA-TATE", "setting": "DTPA 1.0 mg/ml, 72 hours", "result": 94.14, "unit": "%"}
    ]}
  ]
}
